Laboratory results: publication PMC10470895
Several values for one entry are separate records, joined by “and”; a condition that tells them apart may be missing. Equal values may be shown once.

Key:
[1] = target: Pyruvate kinase M2 (PKM2) of the X. laevis oocyte nucleus (X. laevis (endogenous in oocytes)); assay: native gel or EMSA; oocyte nuclear homogenate, native PAGE as in Sen et al. (2016), 2x loading buffer with 200 mM KCl, Western blotting with anti-PKM2; Precision Plus markers
[2] = target: X. laevis oocyte GAPDH (glyceraldehyde 3-phosphate dehydrogenase, somatic form; GAPDH.s and GAPDH.l) (X. laevis (endogenous in oocytes)) (UniProt P51469); assay: native gel or EMSA; oocyte nuclear (up to 0.5 nuclei) and cytoplasmic (0.05 cytoplasm) homogenates in HR buffer on Invitrogen 4-16% NativePAGE Bis-Tris gel, Western blotting; compared with the bands of recombinant human GAPDH; second-dimension SDS-PAGE for cytoplasm
[3] = target: recombinant human GAPDH (glyceraldehyde 3-phosphate dehydrogenase) (human) (UniProt P04406); assay: native gel or EMSA; purified recombinant human GAPDH (1 ug) on Invitrogen 4-16% NativePAGE Bis-Tris gel, Western blotting; bands confirmed as GAPDH by second-dimension SDS-PAGE (about 36 kDa)

recombinant human GAPDH (glyceraldehyde 3-phosphate dehydrogenase), P04406 1-335 (enzyme; other documents disagree on this pair), sequence (P04406 whole entry): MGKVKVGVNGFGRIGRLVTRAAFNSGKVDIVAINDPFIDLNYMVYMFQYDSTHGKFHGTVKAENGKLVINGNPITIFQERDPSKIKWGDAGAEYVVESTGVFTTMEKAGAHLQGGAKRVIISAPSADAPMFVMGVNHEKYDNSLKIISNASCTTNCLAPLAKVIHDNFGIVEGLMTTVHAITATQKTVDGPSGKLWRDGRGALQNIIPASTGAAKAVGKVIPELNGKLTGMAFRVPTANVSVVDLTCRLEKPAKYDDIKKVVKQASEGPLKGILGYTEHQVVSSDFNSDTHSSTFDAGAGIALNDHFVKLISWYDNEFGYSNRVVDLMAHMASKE
X. laevis oocyte GAPDH (glyceraldehyde 3-phosphate dehydrogenase, somatic form; GAPDH.s and GAPDH.l), sequence (P51469 whole entry): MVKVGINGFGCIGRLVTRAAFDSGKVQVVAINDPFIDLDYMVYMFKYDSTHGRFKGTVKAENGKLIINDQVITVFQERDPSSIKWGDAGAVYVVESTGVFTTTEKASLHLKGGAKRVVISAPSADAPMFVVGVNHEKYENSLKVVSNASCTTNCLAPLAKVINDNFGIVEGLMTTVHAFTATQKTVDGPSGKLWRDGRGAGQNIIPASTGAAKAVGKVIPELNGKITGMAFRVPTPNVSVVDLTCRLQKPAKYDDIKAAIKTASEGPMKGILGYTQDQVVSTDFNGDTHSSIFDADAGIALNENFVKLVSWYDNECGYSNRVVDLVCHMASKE

## Pyruvate kinase M2 (PKM2) of the X. laevis oocyte nucleus (enzyme)
[1]
  stoichiometry N: 4

## X. laevis oocyte GAPDH (glyceraldehyde 3-phosphate dehydrogenase, somatic form; GAPDH.s and GAPDH.l) (from UniProt P51469 1-333) (enzyme)
[2]
  stoichiometry N: 4

## recombinant human GAPDH (glyceraldehyde 3-phosphate dehydrogenase), P04406 1-335 (enzyme; other documents disagree on this pair)
[3]
  stoichiometry N: 2 and 4
